Test results reported in the supplement of paper PMC10567573.
± gives the standard deviation.

Experiment: protein stability index of a GFP-peptide fusion (GPS, HEK-293T) (PSI 1-6); higher = more stable
Conditions: c terminus: a fixed tail appended
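Further: 24-mer peptide tiles fused after GFP, lentivirally expressed, FACS-sorted into six equal bins by GFP/DsRed ratio, decoded by Illumina sequencing, PSI is the read-weighted mean bin number.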

Row | Sequence | protein stability index (treatment: DMSO) | protein stability index (treatment: MLN4924 1 uM, 8 h)
1 | AAALLSNTTCQTENRLSVFFSVIF [PTGFR] | 2.43 ± 0.35 | 2.33 ± 0.18
2 | AAAPVAEVPTAAGALTPTPAPTTT [CLPTM1] | 5.3 ± 0.34 | 5.25 ± 0.097
3 | AACTRALESSEELLETANQTLQAM [FSD1] | 5.14 ± 0.16 | 4.84 ± 0.38
4 | AAGELPTVECYNPRTNEWTYVAKM [KLHL13] | 3.11 ± 0.37 | 3.2 ± 0.42
5 | AALRIANCKLFRLQLQQGLFRIRV [GAN] | 2.8 ± 0.57 | 2.58 ± 0.51
6 | AARNACRAGTEPSDAIRVVNAVLT [TRIP13] | 3 ± 0.45 | 3.19 ± 0.33
7 | AATQVFFALGLGFGGVIAFSSYNK [SLC6A17] | 2.64 ± 0.43 | 2.83 ± 0.67
8 | ACRANVKSGAIMSALSDTEIQREI [PPFIA4] | 3.41 ± 0.29 | 3.57 ± 0.47
9 | ADNMLEYKSWLKNLAKEQLSRENI [PPEF2] | 3.61 ± 0.27 | 3.75 ± 0.38
10 | ADSGRYRASPTRTAPLPMPEGPEP [ELOA2] | 4.84 ± 0.32 | 4.96 ± 0.28
11 | ADSSAQAAAQAPENFQEGKDMSES [TAF7L] | 5.72 ± 0.14 | 5.49 ± 0.39
12 | AEGTPRSNHSAQDSAVENLLLLSK [IKZF1] | 4.67 ± 0.41 | 4.86 ± 0.95
13 | AEKCLDFLVDMFNDEIEEVRLQSI [INTS4] | 2.94 ± 0.16 | 2.94 ± 0.4
14 | AEKLKAQGEYSRKLEERFMTLAAN [CCDC89] | 3.4 ± 0.41 | 3.49 ± 0.45
15 | AFGYFITACAVIILTIICYLGLPR [SLC29A1] | 2.3 ± 0.52 | 2.32 ± 0.41
16 | AFHEPQVGLIQAAQQLLCDEQAPQ [DFFB] | 4.64 ± 0.18 | 4.92 ± 0.18
17 | AFLGDAEIIELLILSGARVNAKDN [ANKRD44] | 2.45 ± 0.73 | 2.32 ± 0.23
18 | AGALAQGGGPSATEWACILRRKTP [C6orf223] | 3.56 ± 0.17 | 3.75 ± 0.29
19 | AGGQDMADSMLMQGSRGLTDQAIF [HDAC6] | 3.73 ± 0.054 | 3.86 ± 0.38
20 | AGKLRLLREMCALSFQEELLYWGI [KCNG1] | 2.88 ± 0.5 | 2.34 ± 0.24
21 | AGNKAALLDQIREGAQLKKVEQNS [WASL] | – | 5.24 ± 0.4
22 | AGPGAAEPLPVERDPAAGAAPFRF [ZNF511] | 4.38 ± 0.17 | 4.64 ± 0.29
23 | AGSVFGGGFGGGVGGGFGGGFGGG [KRT15] | 2.56 ± 0.23 | 2.65 ± 0.21

Row | Sequence | protein stability index (treatment: DMSO) | protein stability index (treatment: MLN4924 1 uM, 8 h)
24 | AHEYIFCFVLGFFYPVMLILFLVI [SOAT2] | 2.98 ± 0.56 | 3.03 ± 0.23
25 | AHIHLQQLTCFSITCSSTMSYSCC [KRT34] | 3.37 ± 0.64 | 2.95 ± 0.26
26 | AHVGMELQLKQELAMLNAVTEDLR [SCARA5] | 3.27 ± 0.27 | 3.16 ± 0.45
27 | AIDQYRVCQEVLERSRDVVDDVSV [RHOBTB2] | 4.66 ± 0.31 | 4.78 ± 0.13
28 | AIELFHSYRETRRKEGIVKLKPHE [PTPN9] | 3 ± 0.2 | 3.25 ± 0.27
29 | AIHQDPPDECGKTEFTRFLCSSPL [ATE1] | 3.78 ± 0.24 | 3.82 ± 0.17
30 | AIIRERSSCVKILLDHNANIDIQN [ASB7] | 2.52 ± 0.4 | 2.64 ± 0.26
31 | AKAEGFTASTKNCMVGYDMGATRC [CPXM2] | 3.42 ± 0.31 | 3.62 ± 0.1
32 | AKDYADSIHAIFVETSAKNAININ [RAB22A] | 2.59 ± 0.27 | 2.48 ± 0.34
33 | AKHMGLEPPPEVWQVLKTHPGDPR [POLD4] | 3.77 ± 0.25 | 3.93 ± 0.48
34 | ALAAIYEEKEAWYREESDSLGQDL [DAPK3] | – | 4.6 ± 0.5
35 | ALARKQAQEQLRPQTPEPVEGRKH [RSPH3] | 5.33 ± 0.18 | 5.31 ± 0.28
36 | ALLFIPRRAPFDLFENKKKKNNIK [HSP90AB1] | 2.19 ± 0.27 | –
37 | ALRMATWNQILDPWVYILLRKAVL [PTGFR] | 2.98 ± 0.68 | 2.43 ± 0.41
38 | ALSEILRIGKRPDLLTFVQNLCKG [NEUROD6] | 2.49 ± 0.46 | 2.29 ± 0.21
39 | ALSLIRFPLMTIEEFAAGPAQSGI [BTBD1] | 2.09 ± 0.35 | 2.04 ± 0.13
40 | ALWCSGHLNGHAMCQTKHSPWADG [ADAMTS4] | 2.48 ± 0.38 | 2.27 ± 0.47
41 | AMAAAEGSSGPAGLTLGRSFSNYR [SEPHS2] | 3.82 ± 0.16 | 3.63 ± 0.23
42 | AMKSVHENMDLNKIDDLMQEITEQ [CHMP4C] | 4.7 ± 0.16 | 4.85 ± 0.52
43 | AMPPYGQGPPMVPPYQGGPPRPPM [ZNF207] | 3.79 ± 0.45 | 3.92 ± 0.2
44 | ANYLEKVRQLERENAELESRIQEW [KRT36] | 4.27 ± 0.3 | 4.46 ± 0.16
45 | APAGASYNPSFEDHQTLLSAAHEV [NOP53] | 4.73 ± 0.14 | 4.71 ± 0.14
46 | APFTDEQLYMEQFTKANFWYQPSF [CARM1] | 2.31 ± 0.42 | 2.21 ± 0.26

Row | Sequence | protein stability index (treatment: DMSO) | protein stability index (treatment: MLN4924 1 uM, 8 h)
47 | APHSQGEYDVYSTFQSHEPEFDYL [PPP2R2C] | 4.22 ± 0.19 | 4.13 ± 0.2
48 | APKPDAAPSIDLFSTDAFSSPPQG [SNAP91] | 4.73 ± 0.14 | 4.84 ± 0.14
49 | APLSNGLCCAFSTDGSVLAAGTHD [WSB1] | 4.06 ± 0.43 | 3.9 ± 0.24
50 | APSEGSAEAAPELDLFAMKPPETS [SNAP91] | 5.39 ± 0.23 | 5.47 ± 0.19
51 | APSFSSYLYFLFCPTLIYRETYPR [SOAT2] | 2.99 ± 0.17 | 2.7 ± 0.44
52 | APSIEQRLQEVRESIRRAQVSQVK [FCHSD1] | 4.27 ± 0.39 | 4.35 ± 0.34
53 | AQFHCAYQLADWCLHHICTNYNNV [RHOBTB2] | 3.34 ± 0.36 | 3.15 ± 0.89
54 | AQLYEDFLFPIDISLVKREHDFLD [DLC1] | 2.52 ± 0.12 | 2.7 ± 0.28
55 | AQTPPRPGPPSAPPPPPKEGHQEG [SCNN1D] | 5.73 ± 0.27 | 5.08 ± 0.72
56 | AQYSVTGSAVARAVCKATTHEVMG [SNAP91] | 3.34 ± 0.088 | 3.23 ± 0.2
57 | ARFQDKQYSSHHTAEKRKRLGELF [CHGB] | 3.58 ± 0.44 | 3.56 ± 0.11
58 | ARGTGSGEDSSTSSSTPLEDEEPQ [RTN2] | 5.7 ± 0.15 | 5.62 ± 0.24
59 | ARMGFNASSMLRKSQLGFLNVTNY [DCAF4] | 2.26 ± 0.13 | 2.24 ± 0.14
60 | ARRKLKGAILTTMLATRNFSGGKS [CAMK2A] | 3.21 ± 0.37 | 3.34 ± 0.47
61 | ARRYAGPLHHQTQRFRLDNLLNMA [ELAVL3] | 2.78 ± 0.35 | 2.75 ± 0.31
62 | ARSVGLKWRKVGRSLQRGCRALRD [TRADD] | 2.57 ± 0.32 | 2.55 ± 0.46
63 | ARTFGNEARFIRRSCTPNAEVRHE [KMT2E] | 3.2 ± 0.51 | 3.22 ± 0.26
64 | ASLLHLAVEAGQEECAKWLLLNNA [RIPK4] | 2.17 ± 0.068 | 2.74 ± 0.13
65 | ASMSKRRCGVGVSVLDDLLYAVGG [KLHL20] | 2.62 ± 0.14 | 2.13 ± 0.44
66 | ASQPRGPALLFPATRGVPAKRLLD [TRIB1] | 3.72 ± 0.62 | 3.9 ± 0.36
67 | ASSPKGTIENILDNDPRDLIGDFS [CDC25A] | 4.91 ± 0.21 | 4.82 ± 0.14
68 | ASSWKKQVSHDFLETRFKIQQLLE [FBXO34] | 2.89 ± 0.31 | 2.71 ± 0.41
69 | ASTSLPTKPTQGASSASEPQGLFV [CLPTM1] | 4.42 ± 0.12 | 4.29 ± 0.48

Row | Sequence | protein stability index (treatment: DMSO) | protein stability index (treatment: MLN4924 1 uM, 8 h)
70 | ATGMEVGWYRPPFSRVVHLYRNGK [MOG] | 3.12 ± 0.36 | 2.98 ± 0.14
71 | ATNPHVKPPYSYATLICMAMQASK [FOXJ1] | 2.29 ± 0.32 | 2.36 ± 0.064
72 | ATPIVPVVPPTPPVVKKKGVKRKA [BRD3] | 5.33 ± 0.26 | 5.27 ± 0.12
73 | AVHSGTPVTNNLLEKCKTLVSQSN [SPACA9] | 3.76 ± 0.42 | 3.78 ± 0.39
74 | AVMRGQILNLTQALKDNKSPLHLV [PI4K2A] | 2.33 ± 0.33 | 2.3 ± 0.24
75 | AVNRARRPLARPIKPNEILPPEKG [RHOBTB2] | 4.24 ± 0.12 | 4.27 ± 0.12
76 | AVRCASGRCTVRDFIHRHCQDQNV [SDE2] | 2.59 ± 0.41 | 2.39 ± 0.5
77 | AYGHRQCLELVSCFVLFSLTHTHT [ANKRD44] | 2.52 ± 1 | 3.3 ± 0.47
78 | AYIQCQFEDLNKRKDTKEIYTHFT [GNAI1] | 2.14 ± 0.49 | 2.25 ± 0.3
79 | CAYRTHLVAGIGFYQHLLLYIQSH [SMG5] | 3.01 ± 0.63 | 3.34 ± 0.87
80 | CDDSFTPQEKLWQQLRRGRYVEFN [CPOX] | 3.08 ± 0.14 | 2.89 ± 0.3
81 | CEDLDELHYQDTDSDVPEQRDSKC [MYBL2] | 5.65 ± 0.37 | 5.54 ± 0.24
82 | CEENEQSLPPPAGLNSSWVELPMN [BNIP3L] | 4.65 ± 0.34 | 4.41 ± 0.25
83 | CEVMQEIVDQVLEEDFDSEQLSVL [INTS3] | 5.06 ± 0.14 | 5.16 ± 0.12
84 | CGFGGGAGSVFGGGFGGGVGGGFG [KRT15] | 2.27 ± 0.49 | 2.77 ± 0.23
85 | CGTPNYLSPEVLNKQGHGCESDIW [PLK2] | 2.78 ± 0.28 | 2.83 ± 0.28
86 | CGYEGCRYGCGHRGCGDGCCCPSC [KRTAP19-2] | 3.72 ± 0.31 | 3.72 ± 0.39
87 | CHLCVNYIEMQTDPANCDYVIVSG [YJU2B] | 2.71 ± 0.26 | 2.57 ± 0.33
88 | CHSFISGTAPLNQETAEFFLSLDI [ACSBG2] | 3.01 ± 1.4 | 2.6 ± 1.6
89 | CKRNFVAVYDGSSSVEDLKAKFCS [NETO1] | 2.78 ± 0.39 | 2.9 ± 0.36
90 | CLKEFPEKQELHRNMLGLLGNVAE [ZER1] | 3.19 ± 0.15 | 3.3 ± 0.23
